# B1: lipase BT-1 (Bombus terrestris) (protein)
# chain: VICDVEDTLHVSRKIRLKIYKGNSSYFSSTESMVMNPGNIADDILPDRDSILYIHGFLENTEAENVRVIIRAYLDKGDVNVIVLDWGEIAFNINYVYVSSQVVTIAKAVAESLKKLVDLIDLDTLHVIGHSLGAHIAGNIGRYANINLSRITGLDPALPLFYPSTCHVRSTDAEAVVILHTDGGFYGTATNTGTIDFYVNGGSSVQPGCPIIFGGEFCSHQRSTRIYAESLLNPKAFPAHKCLNEIADTEEVYFGDSTPKDIYGTYCFNTNAKPPYGKTI
# notes: native, purified from labial gland (cephalic part) of 2- to 3-day-old males on octyl-agarose, Triton X-100 desorption; ~30 kDa on SDS-PAGE; identified by MS (18 peptides); catalytic triad Ser155, Asp179, His244
# Substrate: CCCCCCCCCCCC(=O)Oc1ccc([N+](=O)[O-])cc1
# Assay: purified protein
# Type: biochemical, Bombus terrestris
# Conditions: 50 mM Tris/HCl, pH 8.2, 25°C, p-NPL 0.05-0.4 mM added in 2-propanol
protein,measurement,value
B1,Km,1.1 ± 0.3 µM
same,Vmax,0.15 µmol/min/mg

# — PMC3832651, “Characterization of Neutral Lipase BT-1 Isolated from the Labial Gland of Bombus terrestris Males” (PLoS ONE, 2013)
